T1: CD27 protein (His-tagged, Sino Biological Inc. 10039-H08B1) (human, UniProt P26842 20-192)
T1 construct: bought; coated onto ELISA plates; also called human CD27; recombinant protein; not shown: His tag
T1 sequence (looked up): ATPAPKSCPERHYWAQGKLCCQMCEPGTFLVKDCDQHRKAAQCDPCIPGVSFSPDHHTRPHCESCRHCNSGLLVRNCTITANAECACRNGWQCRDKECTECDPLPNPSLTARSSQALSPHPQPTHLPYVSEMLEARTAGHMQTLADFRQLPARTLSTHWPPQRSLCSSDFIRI

T2: CD27 expressed on the cell surface (HT1080_CD27 cells) (human, UniProt P26842 20-260)
T2 construct: whole, on cells; also called K562_CD27
T2 sequence (looked up): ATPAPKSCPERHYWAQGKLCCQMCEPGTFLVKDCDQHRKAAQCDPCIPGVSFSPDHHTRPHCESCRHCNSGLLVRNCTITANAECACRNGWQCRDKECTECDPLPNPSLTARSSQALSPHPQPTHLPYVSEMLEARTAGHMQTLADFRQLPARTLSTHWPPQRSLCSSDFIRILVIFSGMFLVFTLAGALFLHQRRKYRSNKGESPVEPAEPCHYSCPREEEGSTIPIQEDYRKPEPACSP


How the values were obtained:
[1] = target: T1, CD27 protein (His-tagged, Sino …); experiment: ELISA on coated His-tagged CD27
[2] = target: T2, CD27 expressed on the cell surface …; experiment: cellular binding assay, HT1080_CD27 cells
[3] = target: T2, CD27 expressed on the cell surface …; experiment: cell-based or functional assay
Note: test concentration or dose not given here.

Binder | ELISA [abs. corr.] [1] [abs. corr.] | Cellular binding assay [RFU] [2] [RFU] | IL-8, cross-linked by F(ab')2 fragment [abs. corr.] [3] [abs. corr.] | IL-8 [abs. corr.] [3] [abs. corr.]
P018.S.04.A.B03 (antibody, V domains shown, V regions on human Ig constant parts; also called AB27_67) VH: QSLEESGGRLVTPGTPLTLTCTASGFSLSSYDMSWVRQAPGKGLEWIGYIWSDGDTDYANWAIGRFTISKTSTTVDLKMTSPTTEDTATYFCARGYTNYDLWGQGTLVTVSS VL: AAVLTQTPSSVSAAVGGTVTISCQSSQSLYSDPYLSWHQQKPGQPPKRLIYQASTLASGVSSRFKGSGSGTEYTLTISDVQSDDAATYFCQGTYYSDGWYSDFGGGTEVVVK | 3.28 | 338 | 1.97 | 0.394
P018.S.07.A.C02 (antibody, V domains shown, V regions on human Ig constant parts; also called AB27_119) VH: QSVEESGGRLVTPGTPLTLTCTASGFSLSSYHMCWVRQAPGKGLEWIGIIYAGSGNTWYASWAKGRFTISKTSTTVDLKITSPTTEDTATYFCARQPGGGASDTQLDLWGQGTLVTVSS VL: AAVLTQTPSPVSAAVGGTVTINCQSSQSVFDNNQLSWFQHKPGQSPKLLIYRASTLASGVPSRFKGSGSGTQFTLTISDLESDDAATYYCLGGYSSSSDTVFGGGTEVVVE | 3.13 | 380 | 2.02 | 0.735
P018.S.03.A.E04 (antibody, V domains shown, V regions on human Ig constant parts; also called AB27_52) VH: QEQLKESGGGLVTPGGTLTLTCTVSGIDLSSYAISWVRQAPGKGLEWIGYIYVGSTTTWYASWVKGRSTISKTSSTTVDLKMTSLTTEDTATYFCARAYDSGYIGNSFYIFHPWGPGTLVTVSS VL: DIVMTQTPASVSATVGGTVTIKCQASQTISSRLAWYQQKPGQPPKLLIYSASTLASGVSSRFKGSGSGTEFTLTISDLESADGATYYCAGYGGLGITAFGGGTEVVVK | 3.29 | 356 | 1.19 | 0.2
P018.S.06.A.D04 (antibody, V domains shown, V regions on human Ig constant parts; also called AB27_103) VH: QSLEESGGRLVKPDETLTLTCTVSGFDLSSYAVVWVRQAPGKGLEWIGYIYGGSGSTWYASWAKGRFTISKTSSTTVDLKMTSLTTEDTATYFCARAYDSGYIGNSFYAFDPWGPGTLVTVSS VL: DIVMTQTPASVSAAVGGTVTIKCQASQTISSTLAWYQQKPGQPPKLLIYSASTLASGVSSRFKGSGSGPEFTLTISDLESADGGTYTCAGYGTVGVTAFGGGTEVVVR | 3.28 | 394 | 1.06 | 0.444
P018.S.04.A.A05 (antibody, V domains shown, V regions on human Ig constant parts; also called AB27_65) VH: QSLEESGGRLVTPGTPLTLTCTASGFTISSYEMGWVRQAPGEGLEYIGWIASGGSTFYASWAKGRFTISRTSTTVDLTITDLRPSDTGTYFCARGYVEFKLWGPGTLVTVSS VL: DIVMTQTPASVSESVGGTVTIKCQASQSIGSYLSWYQQKPGQPPKVLIYRASTLESGVPSRFEGSGSGTQFTLTISDLESADAATYYCQGYHSTSGYVAFGGGTELVVK | 3.29 | 206 | 2.24 | 1.67
P018.S.09.A.D05 (antibody, V domains shown, V regions on human Ig constant parts; also called AB27_152) VH: QSLEESGGRLVTPGGSLTLTCTVSGIDLSSYAMDWVRQAPGKGLEWIGVIGAGGSTYYASWANGRFTISKTSTTVDLKISSPTTEDTATYFCARDIGGDYSSRYYFSLWGPGTLVTVSS VL: DIVMTQTPASVEAAVGGTVTIKCQASQSTSTALAWYQQKPGQRPKLLIYDSSKLASGVPSRFSGSGSGTEFTLTISGVQSDDAASYYCQQGYNINNVAFGGGTEVVVK | 3.28 | 400 | 2.11 | 0.187
P018.S.01.A.C06 (antibody, V domains shown, V regions on human Ig constant parts; also called AB27_10) VH: QSVEESGGRLVTPGTPLTLTCTVSGIDLNNYVMGWVRQAPGKGLEWIGIINTAGSTYYANWAKGRFTISKTSTTVDLKITSPTTEDTATYFCARDSSYYIGYYFNLWGPGTLVTVSS VL: QIVMTQTPASVEVAVGGTVTIKCQASQSIGSNLAWYQQKPGQPPKLLIYDASDLESGVPSRFKGSGSGAQFTLTISDLESADAATYYCQQGYSATTNVDNAFGGGTEVVVK | 3.3 | 369 | 1.79 | 0.325
P018.S.07.A.C06 (antibody, V domains shown, V regions on human Ig constant parts; also called AB27_121) VH: QSVEESGGRLVTPGTPLTLTCTVSGFSLNHYHMCWVRQAPGKGLEYIGRIDNSGYIVYASWAKGRFTISKTSTTVDLKITSPTTADTATYFCGKYYSGGSYDLWGQGTLVTVSS VL: AQVLTQTASSVSAAVGGTVTISCQSSQSVWNNNWLAWYQQKPGQPPKLLIYETSKLASGVPSRFKGSGSGTQFTLTISGVQSDDAATYYCQGEFSCSSDDCNAFGGGTEVVVK | 3.29 | 336 | 1.04 | 0.408
P018.S.10.A.E06 (antibody, V domains shown, V regions on human Ig constant parts; also called AB27_178) VH: QSLEESGGRLVTPGTPLTLTCTVSGIDLSDYAMAWVRQAPGKGLEYIGFINIGGISSVANWAIGRFTISKSSTTVDLKITSPTTEDTATYFCAREGYTTGGGGPYYGMDLWGPGTLVTVSS VL: DIVMTQTPASVSEPMGGTVTIKCQASQSIHSWLSWYQQKPGQPPKRLIYTASTLASGVPSRFKGSGSGTEYTLTISDLESADAATYYCQRNSYSDFNNYVFGGGTEVVVK | 3.28 | 215 | 2.06 | 0.262
P018.S.07.A.E03 (antibody, V domains shown, V regions on human Ig constant parts; also called AB27_125) VH: QSLEESGGRLVTPGTPLTLTCTVSGIDLSSYAMGWVRQAPGKGLELIGLIYASDRTHYATWAKGRFTISKSSTTVDLKATSLTTEDTATYFCGRYGRGSGGYYYGMDLWGPGTLVTVSS VL: DVVMTQTPASVEAAVGGTVTIKCQASQSGDNYLSWYQQKSGQPPKLLIYLASTLASGVPSRFRGSRSGTEYTLTISDLESADAATYYCQNYCAGSGVCVGVAFGGGTEVVVK | 3.28 | 227 | 1.51 | 0.123
P018.S.05.A.F02 (antibody, V domains shown, V regions on human Ig constant parts; also called AB27_91) VH: QSVEESGGRLVTPGTPLTLTCTVSGFSLNNYGITWVRQAPGKGLEYIGYINYGGIAYYASWVNGRFTISKTSTTVDLKMTSLTAADTATYFCARGYGYYSAGNLWGQGTLVTVSS VL: AQVLTQTPSPVSAAVGGTVTINCQASQSVYDNNYLSWYQQKPGQPPKRLIYDASSLASGVPSRFSGSGSGTQFTLTISGVQSDDAATYYCAGEYSCLSDDCIAFGGGTEVVVK | 3.29 | 472 | 1.91 | 0.526
P018.S.01.A.E04 (antibody, V domains shown, V regions on human Ig constant parts; also called AB27_16) VH: QEQLKESGGGLVTPGGTLTLTCTASGSDISNYGVSWVRQAPGKGLEWIGFINADGGGTWYASWVKGRFTISRTSTTVELKMTSLTTEHTATYFCATYGGGGGHNLWGPGTLVTVSS VL: AQVLTQTPSSVSAAVGGTVTINCQSSQSVYDNNALAWYQQKPGQPPKLLLYSASRLASGVPSRFKGSGSGTQFTLTISDLESDDAATYYCAAYYGSGDIFAFGGGTEVVVE | 3.28 | 295 | 1.15 | 0.264
P018.S.09.A.E03 (antibody, V domains shown, V regions on human Ig constant parts; also called AB27_154) VH: QSVEESGGRLVTPGTPLTLTCTASGFSLSSYYMGWVRQAPGKGLEWIGFITSGGSGSTYYASWAKGRFTISKTSTTVDLKMTSLTTEDTATYFCARYGDSFYWALDLWGQGTLVTVSS VL: AQVLTQTPSSVSAAVGGTVTINCQSSQSVLNNDLSWYQQKPGQPPKLLIYAASTLASGVPSRFKGSGSGTQFTLTINVGQSDDAATYYCQGYFIDVNNPFGGGTEVVVK | 3.27 | 334 | 1.54 | 0.099
P018.S.09.A.C03 (antibody, V domains shown, V regions on human Ig constant parts; also called AB27_148) VH: QSVEESGGRLVTPGTPLTLTCTVSGFSLSSYGMIWVRQAPGKGLEWIGWISSNDNKYYARWAKGRFTISKTSTTVDLKMTSLTTEDTATYFCVRNGVYNTGNYFDLWGQGTLVTVSS VL: AQVLTQTPSSVSAAVGGTVTINCQASQSLYNNKNLAWYQQKPGQPPKFLIYTASSLASGVSSRFKGSGSGTQFTLTISDVQSDDAATYYCQGEFDCDSDDCFAFGGGTEVVVK | 3.53 | 319 | 2.25 | 0.464

Reference: patent publication US20210253725A1 (BIONTECH, published 2021)
